From the supplement of paper PMC10724198
± gives the standard deviation of the averaged measurements.

System: Saccharomyces cerevisiae
Assay: protein stability index of tFT-peptide fusion (C-terminal peptide) (PSI (0-1 scale)); higher = more stable (slower turnover)
Settings: temperature: 30 C
Protocol: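 MPS profiling in S. cerevisiae of the yeast C-terminome library: the last 12 aa of each annotated ORF are fused to the C-terminus of a sfGFP-mCherry timer, after a GGGS linker. Cells are FACS-sorted into 8 mCherry/sfGFP bins and deep-sequenced. PSI runs from 0 (unstable) to 1 (stable); wild type and das1Δ backgrounds, two technical replicates each.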

[1] = genetic background: das1 deletion

TASQILKFEGRI [GRE2 C-terminal 12 aa]
protein stability index [1]: 0.718 ± 0.035 | protein stability index (genetic background: wild type): 0.695 ± 0.057

TEAMNSEIDGTK [ATG16 C-terminal 12 aa]
protein stability index [1]: 0.686 ± 0.017 | protein stability index (genetic background: wild type): 0.703 ± 0.042

TFELVMRFLGEE [YMC2 C-terminal 12 aa]
protein stability index [1]: 0.709 ± 0.0094 | protein stability index (genetic background: wild type): 0.669 ± 0.0095

TFQKAQVEAEWV [TOA1 C-terminal 12 aa]
protein stability index [1]: 0.70901 ± 0.00064 | protein stability index (genetic background: wild type): 0.692 ± 0.027

TFTLAVTPYPAF [YLL066W-B C-terminal 12 aa]
protein stability index [1]: 0.715 ± 0.013 | protein stability index (genetic background: wild type): 0.6847 ± 0.0036

TGNGPNLDNLKY [ARA1 C-terminal 12 aa]
protein stability index [1]: 0.722 ± 0.0074 | protein stability index (genetic background: wild type): 0.641 ± 0.019

TGWPTGLRHQHT [YER133W-A C-terminal 12 aa]
protein stability index [1]: 0.7212 ± 0.0034 | protein stability index (genetic background: wild type): 0.695 ± 0.011

TKKLLRDYFSQF [SMN1 C-terminal 12 aa]
protein stability index [1]: 0.712 ± 0.0096 | protein stability index (genetic background: wild type): 0.188 ± 0.014

TKMFPAHSHVLW [THP1 C-terminal 12 aa]
protein stability index [1]: 0.716 ± 0.032 | protein stability index (genetic background: wild type): 0.72 ± 0.014

TLGLLCLIFGLP [YOR277C C-terminal 12 aa]
protein stability index [1]: 0.482 ± 0.0081 | protein stability index (genetic background: wild type): 0.499 ± 0.018

TLLNAQKEALKK [APT1 C-terminal 12 aa]
protein stability index [1]: 0.6698 ± 0.0014 | protein stability index (genetic background: wild type): 0.684 ± 0.03

TLSKEPFLVFSF [YDL185C-A C-terminal 12 aa]
protein stability index [1]: 0.499 ± 0.026 | protein stability index (genetic background: wild type): 0.494 ± 0.025

TMSLLKRNPRNH [TRM44 C-terminal 12 aa]
protein stability index [1]: 0.704 ± 0.02 | protein stability index (genetic background: wild type): 0.683 ± 0.032

TNEWCLFTPDSP [MLH2 C-terminal 12 aa]
protein stability index [1]: 0.744 ± 0.018 | protein stability index (genetic background: wild type): 0.7355 ± 0.005

TNMSSVSAFISR [PTK2 C-terminal 12 aa]
protein stability index [1]: 0.718 ± 0.0017 | protein stability index (genetic background: wild type): 0.713 ± 0.013

TNQPVNENNDLK [SNF3 C-terminal 12 aa]
protein stability index [1]: 0.667 ± 0.013 | protein stability index (genetic background: wild type): 0.629 ± 0.0078

TPHNHNQNQHTN [RSF1 C-terminal 12 aa]
protein stability index [1]: 0.72 ± 0.029 | protein stability index (genetic background: wild type): 0.706 ± 0.03

TPSSVQSSPKRA [ZRG8 C-terminal 12 aa]
protein stability index [1]: 0.696 ± 0.017 | protein stability index (genetic background: wild type): 0.668 ± 0.0075

TPTCQDPSLTEV [YJR038C C-terminal 12 aa]
protein stability index [1]: 0.7253 ± 0.0048 | protein stability index (genetic background: wild type): 0.6895 ± 0.0068

TSLGLTRTTIIP [CDC4 C-terminal 12 aa]
protein stability index [1]: 0.685 ± 0.021 | protein stability index (genetic background: wild type): 0.6778 ± 0.0043

TSPIGEFQSIKH [SPT21 C-terminal 12 aa]
protein stability index [1]: 0.731 ± 0.015 | protein stability index (genetic background: wild type): 0.674 ± 0.037

TSQEINDRLEAL [PRE8 C-terminal 12 aa]
protein stability index [1]: 0.666 ± 0.027 | protein stability index (genetic background: wild type): 0.643 ± 0.0082

TSSQKIYHTSNK [IPK1 C-terminal 12 aa]
protein stability index [1]: 0.686 ± 0.05 | protein stability index (genetic background: wild type): 0.672 ± 0.049

TVDYIASNPDAN [ACP1 C-terminal 12 aa]
protein stability index [1]: 0.696 ± 0.0025 | protein stability index (genetic background: wild type): 0.736 ± 0.038

TVGIHSPIDEKC [ATG4 C-terminal 12 aa]
protein stability index [1]: 0.699 ± 0.013 | protein stability index (genetic background: wild type): 0.669 ± 0.015

TVVDARIDGRGK [PHB2 C-terminal 12 aa]
protein stability index [1]: 0.6724 ± 0.0014 | protein stability index (genetic background: wild type): 0.708 ± 0.045

TYSEREGNLLNS [RPR2 C-terminal 12 aa]
protein stability index [1]: 0.7159 ± 0.0046 | protein stability index (genetic background: wild type): 0.675 ± 0.0073

VASLPSRYSRYD [ALR1 C-terminal 12 aa]
protein stability index [1]: 0.711 ± 0.024 | protein stability index (genetic background: wild type): 0.654 ± 0.013

VDKLAGVRVLPV [GOT1 C-terminal 12 aa]
protein stability index [1]: 0.67 ± 0.01 | protein stability index (genetic background: wild type): 0.704 ± 0.019

VEKKKVLSKITL [VPH2 C-terminal 12 aa]
protein stability index [1]: 0.691 ± 0.033 | protein stability index (genetic background: wild type): 0.691 ± 0.048

VESTRETGGCNC [YPT53 C-terminal 12 aa]
protein stability index [1]: 0.692 ± 0.027 | protein stability index (genetic background: wild type): 0.65486 ± 0.00056

VFQRAIEKALGE [STR2 C-terminal 12 aa]
protein stability index [1]: 0.707 ± 0.011 | protein stability index (genetic background: wild type): 0.716 ± 0.013

VFSKKEPFPHSK [YJR084W C-terminal 12 aa]
protein stability index [1]: 0.721 ± 0.019 | protein stability index (genetic background: wild type): 0.771 ± 0.059

VGITSVGTRGNY [YNL140C C-terminal 12 aa]
protein stability index [1]: 0.674 ± 0.015 | protein stability index (genetic background: wild type): 0.717 ± 0.097

VGNYFMAIQRLN [COQ3 C-terminal 12 aa]
protein stability index [1]: 0.731 ± 0.025 | protein stability index (genetic background: wild type): 0.16 ± 0.017

VIASDESSHLSY [YHR127W C-terminal 12 aa]
protein stability index [1]: 0.709 ± 0.017 | protein stability index (genetic background: wild type): 0.699 ± 0.024

VKDLYKRLTIQA [GPI1 C-terminal 12 aa]
protein stability index [1]: 0.518 ± 0.018 | protein stability index (genetic background: wild type): 0.0975 ± 0.0091

VKHAEYAINAFF [YPR147C C-terminal 12 aa]
protein stability index [1]: 0.709 ± 0.018 | protein stability index (genetic background: wild type): 0.682 ± 0.026

VKHQPKTYRTKK [SGO1 C-terminal 12 aa]
protein stability index [1]: 0.676 ± 0.015 | protein stability index (genetic background: wild type): 0.677 ± 0.053

VKRNKYPPRPVH [REF2 C-terminal 12 aa]
protein stability index [1]: 0.704 ± 0.023 | protein stability index (genetic background: wild type): 0.74 ± 0.0081

VKSDSGSSCTIM [RHO3 C-terminal 12 aa]
protein stability index [1]: 0.721 ± 0.011 | protein stability index (genetic background: wild type): 0.711 ± 0.023
